# Non-standard residues stand in square brackets, D forms with d. No end group written: not given here. Dap(CONH2) = NC(=O)NC[C@H](N)C(=O)O; 3Pal = N[C@@H](Cc1cccnc1)C(=O)O; 4Pal = N[C@@H](Cc1ccncc1)C(=O)O; Cha = N[C@@H](CC1CCCCC1)C(=O)O; Cit = NC(=O)NCCC[C@H](N)C(=O)O; αMeP = C[C@@]1(C(=O)O)CCCN1; NMeS = CN[C@@H](CO)C(=O)O; dPip = O=C(O)[C@H]1CCCCN1; hSer = N[C@@H](CCO)C(=O)O; NMeA = CN[C@@H](C)C(=O)O; Nle = CCCC[C@H](N)C(=O)O; Orn = NCCC[C@H](N)C(=O)O; dNMeA = CN[C@H](C)C(=O)O; dAze = O=C(O)[C@H]1CCN1; Aib = CC(C)(N)C(=O)O
# B1: Ac-[Glu23, D-Pic(2)24, Cha27,28,36, Aib31]-PYY(23-36) (peptide)
# peptide: Ac-E[dPip]RH[Cha][Cha]NL[Aib]TRQR[Cha]-NH2
# SMILES: CC(=O)N[C@@H](CCC(=O)O)C(=O)N1CCCC[C@@H]1C(=O)N[C@@H](CCCNC(=N)N)C(=O)N[C@@H](Cc1c[nH]cn1)C(=O)N[C@@H](CC1CCCCC1)C(=O)N[C@@H](CC1CCCCC1)C(=O)N[C@@H](CC(N)=O)C(=O)N[C@@H](CC(C)C)C(=O)NC(C)(C)C(=O)N[C@H](C(=O)N[C@@H](CCCNC(=N)N)C(=O)N[C@@H](CCC(N)=O)C(=O)N[C@@H](CCCNC(=N)N)C(=O)N[C@@H](CC1CCCCC1)C(N)=O)[C@@H](C)O
# B2: Ac-[αMePro24, Cha27,28,36, Aib31]-PYY(23-36) (peptide)
# peptide: Ac-S[αMeP]RH[Cha][Cha]NL[Aib]TRQR[Cha]-NH2
# SMILES: CC(=O)N[C@@H](CO)C(=O)N1CCC[C@@]1(C)C(=O)N[C@@H](CCCNC(=N)N)C(=O)N[C@@H](Cc1c[nH]cn1)C(=O)N[C@@H](CC1CCCCC1)C(=O)N[C@@H](CC1CCCCC1)C(=O)N[C@@H](CC(N)=O)C(=O)N[C@@H](CC(C)C)C(=O)NC(C)(C)C(=O)N[C@H](C(=O)N[C@@H](CCCNC(=N)N)C(=O)N[C@@H](CCC(N)=O)C(=O)N[C@@H](CCCNC(=N)N)C(=O)N[C@@H](CC1CCCCC1)C(N)=O)[C@@H](C)O
# B3: Ac-[D-Pro24, Hse26, Cha27,36, Aib28,31]-PYY(23-36) (peptide)
# peptide: Ac-S[dP]R[hSer][Cha][Aib]NL[Aib]TRQR[Cha]-NH2
# SMILES: CC(=O)N[C@@H](CO)C(=O)N1CCC[C@@H]1C(=O)N[C@@H](CCCNC(=N)N)C(=O)N[C@@H](CCO)C(=O)N[C@@H](CC1CCCCC1)C(=O)NC(C)(C)C(=O)N[C@@H](CC(N)=O)C(=O)N[C@@H](CC(C)C)C(=O)NC(C)(C)C(=O)N[C@H](C(=O)N[C@@H](CCCNC(=N)N)C(=O)N[C@@H](CCC(N)=O)C(=O)N[C@@H](CCCNC(=N)N)C(=O)N[C@@H](CC1CCCCC1)C(N)=O)[C@@H](C)O
# B4: Ac-[D-Pro24, Alb26, Cha27,28,36, Aib31]-PYY(23-36) (peptide)
# peptide: Ac-S[dP]R[Dap(CONH2)][Cha][Cha]NL[Aib]TRQR[Cha]-NH2
# SMILES: CC(=O)N[C@@H](CO)C(=O)N1CCC[C@@H]1C(=O)N[C@@H](CCCNC(=N)N)C(=O)N[C@@H](CNC(N)=O)C(=O)N[C@@H](CC1CCCCC1)C(=O)N[C@@H](CC1CCCCC1)C(=O)N[C@@H](CC(N)=O)C(=O)N[C@@H](CC(C)C)C(=O)NC(C)(C)C(=O)N[C@H](C(=O)N[C@@H](CCCNC(=N)N)C(=O)N[C@@H](CCC(N)=O)C(=O)N[C@@H](CCCNC(=N)N)C(=O)N[C@@H](CC1CCCCC1)C(N)=O)[C@@H](C)O
# B5: Ac-[D-Pro24, Pya(3)26, Cha27,28,36, Aib31]-PYY(23-36) (peptide)
# peptide: Ac-S[dP]R[3Pal][Cha][Cha]NL[Aib]TRQR[Cha]-NH2
# SMILES: CC(=O)N[C@@H](CO)C(=O)N1CCC[C@@H]1C(=O)N[C@@H](CCCNC(=N)N)C(=O)N[C@@H](Cc1cccnc1)C(=O)N[C@@H](CC1CCCCC1)C(=O)N[C@@H](CC1CCCCC1)C(=O)N[C@@H](CC(N)=O)C(=O)N[C@@H](CC(C)C)C(=O)NC(C)(C)C(=O)N[C@H](C(=O)N[C@@H](CCCNC(=N)N)C(=O)N[C@@H](CCC(N)=O)C(=O)N[C@@H](CCCNC(=N)N)C(=O)N[C@@H](CC1CCCCC1)C(N)=O)[C@@H](C)O
# B6: Ac-[Glu23, D-Pro24, Pya(4)26, Cha27,28,36, Aib31]-PYY(23-36) (peptide)
# peptide: Ac-E[dP]R[4Pal][Cha][Cha]NL[Aib]TRQR[Cha]-NH2
# SMILES: CC(=O)N[C@@H](CCC(=O)O)C(=O)N1CCC[C@@H]1C(=O)N[C@@H](CCCNC(=N)N)C(=O)N[C@@H](Cc1ccncc1)C(=O)N[C@@H](CC1CCCCC1)C(=O)N[C@@H](CC1CCCCC1)C(=O)N[C@@H](CC(N)=O)C(=O)N[C@@H](CC(C)C)C(=O)NC(C)(C)C(=O)N[C@H](C(=O)N[C@@H](CCCNC(=N)N)C(=O)N[C@@H](CCC(N)=O)C(=O)N[C@@H](CCCNC(=N)N)C(=O)N[C@@H](CC1CCCCC1)C(N)=O)[C@@H](C)O
# B7: Ac-[D-Pic(2)24, Cha27,28,36, Aib31]-PYY(23-36) (peptide)
# peptide: Ac-S[dPip]RH[Cha][Cha]NL[Aib]TRQR[Cha]-NH2
# SMILES: CC(=O)N[C@@H](CO)C(=O)N1CCCC[C@@H]1C(=O)N[C@@H](CCCNC(=N)N)C(=O)N[C@@H](Cc1c[nH]cn1)C(=O)N[C@@H](CC1CCCCC1)C(=O)N[C@@H](CC1CCCCC1)C(=O)N[C@@H](CC(N)=O)C(=O)N[C@@H](CC(C)C)C(=O)NC(C)(C)C(=O)N[C@H](C(=O)N[C@@H](CCCNC(=N)N)C(=O)N[C@@H](CCC(N)=O)C(=O)N[C@@H](CCCNC(=N)N)C(=O)N[C@@H](CC1CCCCC1)C(N)=O)[C@@H](C)O
# B8: Ac-[D-MeAla22, D-Pro24, Cha27,28,36, Aib31]-PYY(22-36) (peptide)
# peptide: Ac-[dNMeA]S[dP]RH[Cha][Cha]NL[Aib]TRQR[Cha]-NH2
# SMILES: CC(=O)N(C)[C@H](C)C(=O)N[C@@H](CO)C(=O)N1CCC[C@@H]1C(=O)N[C@@H](CCCNC(=N)N)C(=O)N[C@@H](Cc1c[nH]cn1)C(=O)N[C@@H](CC1CCCCC1)C(=O)N[C@@H](CC1CCCCC1)C(=O)N[C@@H](CC(N)=O)C(=O)N[C@@H](CC(C)C)C(=O)NC(C)(C)C(=O)N[C@H](C(=O)N[C@@H](CCCNC(=N)N)C(=O)N[C@@H](CCC(N)=O)C(=O)N[C@@H](CCCNC(=N)N)C(=O)N[C@@H](CC1CCCCC1)C(N)=O)[C@@H](C)O
# B9: Ac-[D-Aze(2)24, Cha27,28,36, Aib31]-PYY(23-36) (peptide)
# peptide: Ac-S[dAze]RH[Cha][Cha]NL[Aib]TRQR[Cha]-NH2
# SMILES: CC(=O)N[C@@H](CO)C(=O)N1CC[C@@H]1C(=O)N[C@@H](CCCNC(=N)N)C(=O)N[C@@H](Cc1c[nH]cn1)C(=O)N[C@@H](CC1CCCCC1)C(=O)N[C@@H](CC1CCCCC1)C(=O)N[C@@H](CC(N)=O)C(=O)N[C@@H](CC(C)C)C(=O)NC(C)(C)C(=O)N[C@H](C(=O)N[C@@H](CCCNC(=N)N)C(=O)N[C@@H](CCC(N)=O)C(=O)N[C@@H](CCCNC(=N)N)C(=O)N[C@@H](CC1CCCCC1)C(N)=O)[C@@H](C)O
# B10: Ac-[D-Pro24, Orn26, Cha27,28,36, Aib31]-PYY(23-36) (peptide)
# peptide: Ac-S[dP]R[Orn][Cha][Cha]NL[Aib]TRQR[Cha]-NH2
# SMILES: CC(=O)N[C@@H](CO)C(=O)N1CCC[C@@H]1C(=O)N[C@@H](CCCNC(=N)N)C(=O)N[C@@H](CCCN)C(=O)N[C@@H](CC1CCCCC1)C(=O)N[C@@H](CC1CCCCC1)C(=O)N[C@@H](CC(N)=O)C(=O)N[C@@H](CC(C)C)C(=O)NC(C)(C)C(=O)N[C@H](C(=O)N[C@@H](CCCNC(=N)N)C(=O)N[C@@H](CCC(N)=O)C(=O)N[C@@H](CCCNC(=N)N)C(=O)N[C@@H](CC1CCCCC1)C(N)=O)[C@@H](C)O
# B11: Ac-[D-Pro24, Cit26, Cha27,28,36, Aib31]-PYY(23-36) (peptide)
# peptide: Ac-S[dP]R[Cit][Cha][Cha]NL[Aib]TRQR[Cha]-NH2
# SMILES: CC(=O)N[C@@H](CO)C(=O)N1CCC[C@@H]1C(=O)N[C@@H](CCCNC(=N)N)C(=O)N[C@@H](CCCNC(N)=O)C(=O)N[C@@H](CC1CCCCC1)C(=O)N[C@@H](CC1CCCCC1)C(=O)N[C@@H](CC(N)=O)C(=O)N[C@@H](CC(C)C)C(=O)NC(C)(C)C(=O)N[C@H](C(=O)N[C@@H](CCCNC(=N)N)C(=O)N[C@@H](CCC(N)=O)C(=O)N[C@@H](CCCNC(=N)N)C(=O)N[C@@H](CC1CCCCC1)C(N)=O)[C@@H](C)O
# B12: [MeAla22, D-Pro24, Cha27,28,36, Aib31]-PYY(22-36) (peptide)
# peptide: [NMeA]S[dP]RH[Cha][Cha]NL[Aib]TRQR[Cha]-NH2
# modifications: N-terminus assumed
# SMILES: CN[C@@H](C)C(=O)N[C@@H](CO)C(=O)N1CCC[C@@H]1C(=O)N[C@@H](CCCNC(=N)N)C(=O)N[C@@H](Cc1c[nH]cn1)C(=O)N[C@@H](CC1CCCCC1)C(=O)N[C@@H](CC1CCCCC1)C(=O)N[C@@H](CC(N)=O)C(=O)N[C@@H](CC(C)C)C(=O)NC(C)(C)C(=O)N[C@H](C(=O)N[C@@H](CCCNC(=N)N)C(=O)N[C@@H](CCC(N)=O)C(=O)N[C@@H](CCCNC(=N)N)C(=O)N[C@@H](CC1CCCCC1)C(N)=O)[C@@H](C)O
# B13: Ac-[D-Pro24, Nle25, Pya(4)26, Cha27,28,36, Aib31]-PYY(23-36) (peptide)
# peptide: Ac-S[dP][Nle][4Pal][Cha][Cha]NL[Aib]TRQR[Cha]-NH2
# SMILES: CCCC[C@H](NC(=O)[C@H]1CCCN1C(=O)[C@H](CO)NC(C)=O)C(=O)N[C@@H](Cc1ccncc1)C(=O)N[C@@H](CC1CCCCC1)C(=O)N[C@@H](CC1CCCCC1)C(=O)N[C@@H](CC(N)=O)C(=O)N[C@@H](CC(C)C)C(=O)NC(C)(C)C(=O)N[C@H](C(=O)N[C@@H](CCCNC(=N)N)C(=O)N[C@@H](CCC(N)=O)C(=O)N[C@@H](CCCNC(=N)N)C(=O)N[C@@H](CC1CCCCC1)C(N)=O)[C@@H](C)O
# B14: Ac-[MeSer23, D-Pro24, Cha27,28,36, Aib31]-PYY(22-36) (peptide)
# peptide: Ac-A[NMeS][dP]RH[Cha][Cha]NL[Aib]TRQR[Cha]-NH2
# SMILES: CC(=O)N[C@@H](C)C(=O)N(C)[C@@H](CO)C(=O)N1CCC[C@@H]1C(=O)N[C@@H](CCCNC(=N)N)C(=O)N[C@@H](Cc1c[nH]cn1)C(=O)N[C@@H](CC1CCCCC1)C(=O)N[C@@H](CC1CCCCC1)C(=O)N[C@@H](CC(N)=O)C(=O)N[C@@H](CC(C)C)C(=O)NC(C)(C)C(=O)N[C@H](C(=O)N[C@@H](CCCNC(=N)N)C(=O)N[C@@H](CCC(N)=O)C(=O)N[C@@H](CCCNC(=N)N)C(=O)N[C@@H](CC1CCCCC1)C(N)=O)[C@@H](C)O
# Target: human Y2 receptor (human) (UniProt P49146)
# Sequence (P49146 whole entry): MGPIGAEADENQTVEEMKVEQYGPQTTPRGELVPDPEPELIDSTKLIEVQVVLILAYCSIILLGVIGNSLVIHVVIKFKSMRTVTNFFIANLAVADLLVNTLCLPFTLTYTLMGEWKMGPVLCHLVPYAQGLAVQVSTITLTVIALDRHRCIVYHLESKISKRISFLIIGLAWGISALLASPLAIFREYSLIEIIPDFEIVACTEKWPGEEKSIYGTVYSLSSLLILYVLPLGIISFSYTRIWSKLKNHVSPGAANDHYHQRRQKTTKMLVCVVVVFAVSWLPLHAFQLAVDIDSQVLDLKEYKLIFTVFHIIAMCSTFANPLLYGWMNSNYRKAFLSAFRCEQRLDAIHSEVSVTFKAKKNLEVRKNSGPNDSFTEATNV
# Experiment: cell-based or functional assay
row,"GBA EC50 Ratio (vs PYY(3-36)), [35S]GTPγS",Binder
1,10,B1
2,1.3,B2
3,5.4,B3
4,2.2,B4
5,1.2,B5
6,1.3,B6
7,5.8,B7
8,6.1,B8
9,1.3,B9
10,2.2,B10
11,1.7,B11
12,0.72,B12
13,2.6,B13
14,7.8,B14

# Target: human Y2 receptor (human) (UniProt P49146)
# Experiment: RBA: [125I]-PYY displacement, hY2R/CHO membranes
row,IC50 Ratio (vs PYY(3-36)),Binder
1,17,B1
2,2.8,B2
3,11,B3
4,12,B4
5,3.3,B5
6,4.6,B6
7,9.9,B7
8,3.5,B8
9,1.7,B9
10,4.2,B10
11,5.5,B11
12,0.6,B12
13,20,B13
14,12,B14

# Reference: patent US20120172293A1 (Takeda / Millennium, published 2012)
